Measurements published in patent US20200317768A1 (published 2020).

What was measured:
Assay in all cases: SPR; FcgR bound per captured antibody, normalized to SG1
[1] = molecular target: T1, cynomolgus monkey FcγRIIIaS extracellular domain, C-terminal His-tag (cynomolgus monkey, UniProt Q8SPW2 21-206 at identity 1.00))
T1 construct: also called cyno FcγRIIIaS; FcgRIIIaS
T1 chain: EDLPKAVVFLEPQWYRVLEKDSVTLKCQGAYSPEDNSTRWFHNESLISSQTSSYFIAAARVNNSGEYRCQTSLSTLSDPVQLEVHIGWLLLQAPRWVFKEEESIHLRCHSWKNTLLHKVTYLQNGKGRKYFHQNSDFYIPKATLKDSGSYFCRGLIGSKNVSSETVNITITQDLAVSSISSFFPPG

[2] = molecular target: T2, cynomolgus monkey FcγRIIa1 extracellular domain, C-terminal His-tag (cynomolgus monkey)
T2 construct: also called cyno FcγRIIa1; FcgRIIa1
T2 chain: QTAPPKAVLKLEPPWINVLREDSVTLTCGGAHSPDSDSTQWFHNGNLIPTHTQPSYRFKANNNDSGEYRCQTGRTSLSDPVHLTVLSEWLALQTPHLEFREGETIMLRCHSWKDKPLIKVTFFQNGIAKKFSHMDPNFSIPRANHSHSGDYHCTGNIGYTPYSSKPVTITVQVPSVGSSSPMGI

[3] = molecular target: T3, cynomolgus monkey FcγRIIb extracellular domain, C-terminal His-tag (cynomolgus monkey)
T3 construct: also called cyno FcγRIIb; cynoFcγRIIb
T3 chain: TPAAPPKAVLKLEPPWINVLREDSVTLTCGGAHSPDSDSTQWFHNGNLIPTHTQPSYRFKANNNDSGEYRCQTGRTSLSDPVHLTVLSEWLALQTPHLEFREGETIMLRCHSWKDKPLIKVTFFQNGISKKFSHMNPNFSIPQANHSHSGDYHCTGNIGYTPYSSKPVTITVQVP

[4] = molecular target: T4, cynomolgus monkey FcγRIIa3 extracellular domain, C-terminal His-tag (cynomolgus monkey)
T4 construct: also called cyno FcγRIIa3; FcgRIIa3
T4 chain: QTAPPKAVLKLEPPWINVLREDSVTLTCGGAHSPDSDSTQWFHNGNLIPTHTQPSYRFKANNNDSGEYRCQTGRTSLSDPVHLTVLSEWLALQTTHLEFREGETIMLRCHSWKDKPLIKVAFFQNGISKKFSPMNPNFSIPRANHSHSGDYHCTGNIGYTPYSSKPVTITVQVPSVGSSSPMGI

[5] = molecular target: T5, cynomolgus monkey FcγRIIa2 extracellular domain, C-terminal His-tag (cynomolgus monkey)
T5 construct: also called cyno FcγRIIa2; FcgRIIa2
T5 chain: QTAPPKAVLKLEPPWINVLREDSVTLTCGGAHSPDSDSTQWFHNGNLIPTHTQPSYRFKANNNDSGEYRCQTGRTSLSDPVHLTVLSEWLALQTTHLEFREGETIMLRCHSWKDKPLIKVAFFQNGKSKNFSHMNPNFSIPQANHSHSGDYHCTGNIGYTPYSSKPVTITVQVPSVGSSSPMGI

Measured: amount of FcgR binding (SG1 = 100)

B1: MS_M103205H795-SG1/M103202L889-SK1 (antibody, human IgG1, kappa)
heavy: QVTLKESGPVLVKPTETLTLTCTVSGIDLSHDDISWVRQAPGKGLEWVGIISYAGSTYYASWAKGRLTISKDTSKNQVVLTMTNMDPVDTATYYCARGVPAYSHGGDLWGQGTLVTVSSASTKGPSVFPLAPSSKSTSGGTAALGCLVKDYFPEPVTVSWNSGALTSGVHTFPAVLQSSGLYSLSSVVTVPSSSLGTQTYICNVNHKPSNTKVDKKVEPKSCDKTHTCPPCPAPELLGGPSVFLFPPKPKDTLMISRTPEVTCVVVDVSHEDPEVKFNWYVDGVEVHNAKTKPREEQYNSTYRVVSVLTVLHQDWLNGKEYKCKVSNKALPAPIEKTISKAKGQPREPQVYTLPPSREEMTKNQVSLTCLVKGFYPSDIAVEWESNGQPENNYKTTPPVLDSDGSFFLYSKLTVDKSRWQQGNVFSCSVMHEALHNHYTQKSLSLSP
light: DIVMTQSPATLSLSPGERATLSCTSSQSVYHANWLSWFQQKPGQPPKLLIYWASTLAYGVPSRFSGSGSGTDFTLTISSLQPEDAATYYCAGGYGGGRYAFGQGTKVEIKRTVAAPSVFIFPPSDEQLKSGTASVVCLLNNFYPREAKVQWKVDNALQSGNSQESVTEQDSKDSTYSLSSTLTLSKADYEKHKVYACEVTHQGLSSPVTKSFNRGEC
notes: also called MS1032LO06-SG1
100 SG1 = 100: all assays above
